Measured values reported in patent US20050037339A1 (published 2005).

How the values were obtained:
BoNT-A C-fragment [1] = molecular target: T1, BoNT-A C-fragment (UniProt P0DPI0 871-1296); assay: SPR (BIAcore), purified scFv
BoNT-A C-fragment [2] = molecular target: T1, BoNT-A C-fragment; assay: SPR (BIAcore), purified scFv; Kd calculated as koff/kon

T1 sequence (P0DPI0 871-1296): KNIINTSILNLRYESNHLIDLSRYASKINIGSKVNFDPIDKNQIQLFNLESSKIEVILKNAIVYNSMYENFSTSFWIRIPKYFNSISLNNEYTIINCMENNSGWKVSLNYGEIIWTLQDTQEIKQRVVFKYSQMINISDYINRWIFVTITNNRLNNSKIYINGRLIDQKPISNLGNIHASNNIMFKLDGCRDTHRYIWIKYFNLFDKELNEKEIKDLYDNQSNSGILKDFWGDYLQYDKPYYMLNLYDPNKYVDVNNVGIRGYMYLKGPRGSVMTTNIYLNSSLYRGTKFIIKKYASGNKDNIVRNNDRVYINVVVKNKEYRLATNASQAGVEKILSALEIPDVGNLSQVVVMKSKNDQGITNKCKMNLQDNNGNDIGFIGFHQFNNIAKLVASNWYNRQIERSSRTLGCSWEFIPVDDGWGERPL

B1: anti-BoNT-A scFv 2B6 (scFv)
chain: VKLVESGPGLVKPSQSLSLTCTVTGYSITSDYAWNWIRQFPGNKLEWMGYINYDGSNNYNPSLKNRISITRDTSKNQFFLKLNSVTSEDTATYYCARAGDGYYVDWYFDVWGTGTTVIVSSGGGGSGGGGSGGGGSYIELTQSPASLAVSLGQRATTSCRASESVDSYGNSFMHWYQQKPGQPPKLLIYLASNLESGVPARFSGSGSRTDFTLTIDPVEADDAATYYCQQNNEDPYTFGGGTKLEIKS
koff (BoNT-A C-fragment [1]): 0.0078 s⁻¹ | kon (BoNT-A C-fragment [1]): 110000 M⁻¹ s⁻¹ | Kd (BoNT-A C-fragment [2]): 71.5 nM
